According to patent US20240270846A1 (published 2024):

Target: T1, CD3 epsilon homodimer protein (UniProt P07766 23-126)
T1 construct: also called CD3 (CD3 epsilon)
Assay: SPR, CD3e homodimer on chip;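 further: surface plasmon resonance at 25 degrees C, antibodies flowed as analyte over CD3 epsilon homodimer amine-coupled to a CM4 chip, running buffer HBS-EP+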
Experimental: An appropriate amount of CD3 epsilon homodimer protein was immobilized onto Sensor chip CM4 (GE Healthcare Japan Corp.) by the amine coupling method. Then, the antibody having an appropriate concentration was injected thereto as an analyte and allowed to interact with the CD3 epsilon homodimer protein on the sensor chip. Then, the sensor chip was regenerated by the injection of 10 mmol/L glycine-HCl (pH 1.5). The assay was conducted at 25 degrees C., and HBS-EP+(GE Healthcare Japan Corp.) was used as a running buffer. […] Each parameter was calculated using Biacore T200 Evaluation Software (GE Healthcare Japan Corp.).
Specifically, when the amount of the GLS3000-containing antibody bound was defined as X and the amount of the L chain one-amino acid altered form bound was defined as Y, a value of Z (ratio of amounts bound)=Y/X was used.

T1 sequence (P07766 23-126): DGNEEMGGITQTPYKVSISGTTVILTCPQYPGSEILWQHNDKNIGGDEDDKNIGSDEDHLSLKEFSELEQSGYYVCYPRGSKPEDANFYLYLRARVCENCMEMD

ratio of amounts bound (altered form / unaltered GLS3000 antibody) | Binder
0.22 | GLS3000 H27dD one-arm antibody (H chain CE115HA000) (antibody, human IgG1, kappa, L234A L235A, N297A, name in Kabat numbering, one-arm antibody) heavy: QVQLVESGGGVVQPGRSLRLSCAASGFTFSNAWMHWVRQAPGKGLEWVAQIKAKSNNYATYYAESVKGRFTISRDDSKNSLYLQMNSLKTEDTAVYYCRYVHYGAYYGVDAWGQGTTVTVSSASTKGPSVFPLAPSSKSTSGGTAALGCLVKDYFPEPVTVSWNSGALTSGVHTFPAVLQSSGLYSLSSVVTVPSSSLGTQTYICNVNHKPSNTKVDKKVEPKSCDKTHTCPPCPAPEAAGGPSVFLFPPKPKDTLMISRTPEVTCVVVDVSHEDPEVKFNWYVDGVEVHNAKTKPREEQYASTYRVVSVLTVLHQDWLNGKEYKCKVSNKALPAPIEKTISKAKGQPREPQVYTLPPSRCELTKNQVSLSCAVKGFYPSDIAVEWESNGQPENNYKTTPPVLDSDGSFFLVSKLTVDKSRWQQGNVFSCSVMHEALHNHYTQKSLSLSPDYKDDDDK EPKSSDKTHTCPPCPAPELLGGPSVFLFPPKPKDTLMISRTPEVTCVVVDVSHEDPEVKFNWYVDGVEVHNAKTKPREEQYNSTYRVVSVLTVLHQDWLNGKEYKCKVSNKALPAPIEKTISKAKGQPREPQVCTLPPSRDELTKNQVSLWCLVKGFYPSDIAVEWESNGQPENNYKTTPPVLDSDGSFFLYSKLTVDKSRWQQGNVFSCSVMHEALHNRYTQKSLSLSP light: DIVMTQSPLSLPVTPGEPASISCRSSQSLVDSNRNTYLHWYQQKPGQAPRLLIYKVSNRFSGVPDRFSGSGSGTDFTLKISRVEAEDVGVYYCGQGTQVPYTFGQGTKLEIKRTVAAPSVFIFPPSDEQLKSGTASVVCLLNNFYPREAKVQWKVDNALQSGNSQESVTEQDSKDSTYSLSSTLTLSKADYEKHKVYACEVTHQGLSSPVTKSFNRGEC
0.63 | GLS3000 H27dF one-arm antibody (H chain CE115HA000) (antibody, human IgG1, kappa, L234A L235A, N297A, name in Kabat numbering, one-arm antibody) heavy: QVQLVESGGGVVQPGRSLRLSCAASGFTFSNAWMHWVRQAPGKGLEWVAQIKAKSNNYATYYAESVKGRFTISRDDSKNSLYLQMNSLKTEDTAVYYCRYVHYGAYYGVDAWGQGTTVTVSSASTKGPSVFPLAPSSKSTSGGTAALGCLVKDYFPEPVTVSWNSGALTSGVHTFPAVLQSSGLYSLSSVVTVPSSSLGTQTYICNVNHKPSNTKVDKKVEPKSCDKTHTCPPCPAPEAAGGPSVFLFPPKPKDTLMISRTPEVTCVVVDVSHEDPEVKFNWYVDGVEVHNAKTKPREEQYASTYRVVSVLTVLHQDWLNGKEYKCKVSNKALPAPIEKTISKAKGQPREPQVYTLPPSRCELTKNQVSLSCAVKGFYPSDIAVEWESNGQPENNYKTTPPVLDSDGSFFLVSKLTVDKSRWQQGNVFSCSVMHEALHNHYTQKSLSLSPDYKDDDDK EPKSSDKTHTCPPCPAPELLGGPSVFLFPPKPKDTLMISRTPEVTCVVVDVSHEDPEVKFNWYVDGVEVHNAKTKPREEQYNSTYRVVSVLTVLHQDWLNGKEYKCKVSNKALPAPIEKTISKAKGQPREPQVCTLPPSRDELTKNQVSLWCLVKGFYPSDIAVEWESNGQPENNYKTTPPVLDSDGSFFLYSKLTVDKSRWQQGNVFSCSVMHEALHNRYTQKSLSLSP light: DIVMTQSPLSLPVTPGEPASISCRSSQSLVFSNRNTYLHWYQQKPGQAPRLLIYKVSNRFSGVPDRFSGSGSGTDFTLKISRVEAEDVGVYYCGQGTQVPYTFGQGTKLEIKRTVAAPSVFIFPPSDEQLKSGTASVVCLLNNFYPREAKVQWKVDNALQSGNSQESVTEQDSKDSTYSLSSTLTLSKADYEKHKVYACEVTHQGLSSPVTKSFNRGEC
0.23 | GLS3000 H27dE one-arm antibody (H chain CE115HA000) (antibody, human IgG1, kappa, L234A L235A, N297A, name in Kabat numbering, one-arm antibody) heavy: QVQLVESGGGVVQPGRSLRLSCAASGFTFSNAWMHWVRQAPGKGLEWVAQIKAKSNNYATYYAESVKGRFTISRDDSKNSLYLQMNSLKTEDTAVYYCRYVHYGAYYGVDAWGQGTTVTVSSASTKGPSVFPLAPSSKSTSGGTAALGCLVKDYFPEPVTVSWNSGALTSGVHTFPAVLQSSGLYSLSSVVTVPSSSLGTQTYICNVNHKPSNTKVDKKVEPKSCDKTHTCPPCPAPEAAGGPSVFLFPPKPKDTLMISRTPEVTCVVVDVSHEDPEVKFNWYVDGVEVHNAKTKPREEQYASTYRVVSVLTVLHQDWLNGKEYKCKVSNKALPAPIEKTISKAKGQPREPQVYTLPPSRCELTKNQVSLSCAVKGFYPSDIAVEWESNGQPENNYKTTPPVLDSDGSFFLVSKLTVDKSRWQQGNVFSCSVMHEALHNHYTQKSLSLSPDYKDDDDK EPKSSDKTHTCPPCPAPELLGGPSVFLFPPKPKDTLMISRTPEVTCVVVDVSHEDPEVKFNWYVDGVEVHNAKTKPREEQYNSTYRVVSVLTVLHQDWLNGKEYKCKVSNKALPAPIEKTISKAKGQPREPQVCTLPPSRDELTKNQVSLWCLVKGFYPSDIAVEWESNGQPENNYKTTPPVLDSDGSFFLYSKLTVDKSRWQQGNVFSCSVMHEALHNRYTQKSLSLSP light: DIVMTQSPLSLPVTPGEPASISCRSSQSLVESNRNTYLHWYQQKPGQAPRLLIYKVSNRFSGVPDRFSGSGSGTDFTLKISRVEAEDVGVYYCGQGTQVPYTFGQGTKLEIKRTVAAPSVFIFPPSDEQLKSGTASVVCLLNNFYPREAKVQWKVDNALQSGNSQESVTEQDSKDSTYSLSSTLTLSKADYEKHKVYACEVTHQGLSSPVTKSFNRGEC
0.3 | GLS3000 H27dG one-arm antibody (H chain CE115HA000) (antibody, human IgG1, kappa, L234A L235A, N297A, name in Kabat numbering, one-arm antibody) heavy: QVQLVESGGGVVQPGRSLRLSCAASGFTFSNAWMHWVRQAPGKGLEWVAQIKAKSNNYATYYAESVKGRFTISRDDSKNSLYLQMNSLKTEDTAVYYCRYVHYGAYYGVDAWGQGTTVTVSSASTKGPSVFPLAPSSKSTSGGTAALGCLVKDYFPEPVTVSWNSGALTSGVHTFPAVLQSSGLYSLSSVVTVPSSSLGTQTYICNVNHKPSNTKVDKKVEPKSCDKTHTCPPCPAPEAAGGPSVFLFPPKPKDTLMISRTPEVTCVVVDVSHEDPEVKFNWYVDGVEVHNAKTKPREEQYASTYRVVSVLTVLHQDWLNGKEYKCKVSNKALPAPIEKTISKAKGQPREPQVYTLPPSRCELTKNQVSLSCAVKGFYPSDIAVEWESNGQPENNYKTTPPVLDSDGSFFLVSKLTVDKSRWQQGNVFSCSVMHEALHNHYTQKSLSLSPDYKDDDDK EPKSSDKTHTCPPCPAPELLGGPSVFLFPPKPKDTLMISRTPEVTCVVVDVSHEDPEVKFNWYVDGVEVHNAKTKPREEQYNSTYRVVSVLTVLHQDWLNGKEYKCKVSNKALPAPIEKTISKAKGQPREPQVCTLPPSRDELTKNQVSLWCLVKGFYPSDIAVEWESNGQPENNYKTTPPVLDSDGSFFLYSKLTVDKSRWQQGNVFSCSVMHEALHNRYTQKSLSLSP light: DIVMTQSPLSLPVTPGEPASISCRSSQSLVGSNRNTYLHWYQQKPGQAPRLLIYKVSNRFSGVPDRFSGSGSGTDFTLKISRVEAEDVGVYYCGQGTQVPYTFGQGTKLEIKRTVAAPSVFIFPPSDEQLKSGTASVVCLLNNFYPREAKVQWKVDNALQSGNSQESVTEQDSKDSTYSLSSTLTLSKADYEKHKVYACEVTHQGLSSPVTKSFNRGEC
